Among the data in patent US20220017615A1 (SHANGHAI PHARMAEXPLORER, published 2022) are Kd, koff and kon values, retold here.

Residue numbers refer to the chain shown, from its start.

B1: c4D10B11 (antibody, V domains shown)
VH: QVQLQQSGPELVKPGASVKISCKASGYSFTSYYIHWVKQRPGQGLEWIGWIYPGSGNTKYNEKFKGKATLTADTSSSTADMQLSSLTSEDSAVYYCARRGDWYFDVWGTGTTVTVSS
VL: DIVMSQSPSSLVVSVGEKVTMNCKSSQSLLFSGNQKSSLAWYQQKPGQSPKLLIYWASTRESGVPDRFTGSGSGTDFTLIISTVKAEDLAVYSCQQYYSYPLTFGAGTKLELK
B2: c25E3B5 (antibody, V domains shown)
VH: QVQLQQPGTALVRPGSSVKLSCKASGYTFTSYWMHWVRQRPIKGLEWIGNIDPSDSETHYNQRFKDKVTLTVDKSSNTAYMQLSSLTSEDSAVYYCARWKYHGIGAMDYWGQGTSVTVSS
VL: DVQITQSPSYLAASPGETVTISCRTNRNISKFLAWYQEKPGKTNKLLIYSGSTLHSGIPSRFSGSGSGTDFTLTISRLEPEDFAMYYCQQHNEYPWSFGGGTKLEIK
B3: c132D1E5 (antibody, V domains shown)
VH: QVQLQQPGAELVRPGSSVKLSCKASGYTFTNNWMHWVKQRPLQGLEWIGNIDPSDSETHYNQKFKDKATLTVDKSSTTAYIQLSSLTSEDSAVYYCARWRGGGRGAMDYWGQGTSVTVSS
VL: B2 VL with V19I, S22N, N26S, R27K, H55Q, R77N, S97T, G100R
B4: c20H4G5 (antibody, V domains shown)
VH: QVQLQQPGAELVRPGSSVRLSCVTSGYTFTSHWMHWVKQGPIKGLEWIGNIDPSDSETHYNQKFKDKATLTVDKSSSTAYMQLSRLTSDDSAVYYCARWRHLGIGAMDYWGQGTSVIVSS
VL: B2 VL with V19I, S22N, T25A, N26S, R27K, E38A, T43S, K45N, H55Q, S97T
B5: c54G8G6 (antibody, V domains shown)
VH: QVQLQQPGADLVKPGASVKMSCKASGYTFTSYWIIWVKQRPGQGLEWIGDINPGRGSPNYNEKFKRKATLTVDTSSSTAYMQLSSLTSEDSAVYYCVRGGLRRFDHWGQGTLVTVSA
VL: ENVLTQSPAIMSASPGEKVTMTCRASSSVSSSYLHWYQQKSGASPKLWIYSTSTLASGVPARFSGSGSGTSYSLTISSVEAEDAATYYCQQYSGYPYTFGGGTKLEIK
B6: c51E2F11 (antibody, V domains shown)
VH: EVQLQQSGAELVKPGASVKLSCTASGFNIKDHYIHWMNQRTEQGLEWIGRIDPDDGETRYAPKFRGKATLTADTSSNTAYLQFSSLTSEDTAVYHCTRATTITRDWYFDVWGTGTTVTVSS
VL: DIVMTQSQKFMSTSVGDRVSITCKASQNVRTSVAWYQQKPGQSPKALIYLASNRHTGIPDRFTGSGSGTDFTLTIRNVQSEDLADYFCLQHWDYPLTFGAGTKLELK

The target of this assay is T1, His-tagged CD47 recombinant protein, CD47-His (human, UniProt Q08722 19-141, limits assumed).
T1 construct: it is not restated for CD47-His; also called human CD47-His protein; antigen CD47-His; not shown: His tag
Description: BLI (Octet Red 96), antibody on AHC sensor, CD47-His 100 nM. On the technique in general: In BLI a coated tip is dipped into the sample, and binding shifts an interference pattern.
With B1, the Kd (in general, a measure of binding affinity in units of concentration) stood at 1.06 nM; the koff – broadly, the rate constant with which the complex falls apart – stood at 0.000284 s⁻¹; the kon (as a rule, the rate constant with which the complex forms) worked out at 268000 M⁻¹ s⁻¹.

With B2, the Kd was 3.7 nM, the off-rate constant (koff) was found to be 0.000867 s⁻¹ and the kon was 234000 M⁻¹ s⁻¹.

With B3, the Kd turned out to be 0.982 nM, the koff was found to be 0.000362 s⁻¹ and the on-rate (kon) is 369000 M⁻¹ s⁻¹.

B4: the Kd is 0.695 nM, the off-rate constant (koff) turned out to be 0.000202 s⁻¹ and the kon was 290000 M⁻¹ s⁻¹.

For the molecule B5, the Kd stood at 1.39 nM, the koff came to 0.000478 s⁻¹ and the kon came out at 343000 M⁻¹ s⁻¹.

B6: the Kd came out at 2.41 nM, the koff worked out at 0.00103 s⁻¹ and the on-rate (kon) is 428000 M⁻¹ s⁻¹.
